Test results taken from US20230086603A1 (BOLT BIOTHERAPEUTICS, published 2023).

Target: T1, human PD-L1 (hPD-L1) (human, UniProt Q9NZQ7 19-290)
T1 construct: Endogenous hPD-L1 on JIMT1 (JIMT-1) cells; also called programmed death-ligand 1; CD274
Assay: flow cytometry on JIMT-1 cells expressing endogenous human PD-L1; anti-human IgG Fc secondary; geometric MFI
Protocol: Binding of the binding agents of an embodiment of the invention to human PD-L1 (hPD-L1) on cell surfaces was assessed by incubating the binding agents with JIMT1 cells that express endogenous hPD-L1. Briefly, the binding agents were diluted serially in FACS buffer (PBS+1% FBS+5 mM EDTA, pH 7.4) at 4° C. Diluted binding agents were applied to JIMT1 cells (˜1×10⁵-2×10⁵ per well) and incubated at 4° C. […] After unbound secondary antibody was washed out, cells were resuspended in FACS buffer plus 2% formaldehyde and analyzed by flow cytometry. The intensity of fluorescence, expressed as geometric mean fluorescence intensity, was used to determine anti-PDL1 binding agent binding to hPD-L1 on cell surface.

T1 sequence (Q9NZQ7 19-290 limits assumed): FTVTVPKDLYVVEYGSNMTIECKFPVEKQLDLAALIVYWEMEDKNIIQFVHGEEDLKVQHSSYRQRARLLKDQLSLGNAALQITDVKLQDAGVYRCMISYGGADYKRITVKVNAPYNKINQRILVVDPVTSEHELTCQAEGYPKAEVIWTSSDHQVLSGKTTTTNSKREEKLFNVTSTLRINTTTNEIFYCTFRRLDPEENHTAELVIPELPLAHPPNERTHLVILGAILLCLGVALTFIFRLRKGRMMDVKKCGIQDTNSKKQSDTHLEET

B1: 25 (antibody, V domains shown)
VH: QVQLVQSGAEVKKPGASVKVSCKASGYTFTGYYMHWVRQAPGQGLEWMGWMNPNSDIAGYAQKFQGRVTMTRDTSTSTVYMELSSLRSEDTAVYYCARDAWELLAFDIWGQGTLVTVSS
VL: DIQMTQSPSSLSASVGDRVTITCRASQSVSTWLAWYQQKPGKAPKLLIYAASNLESGVPSRFSGSGSGTDFTLTISSLQPEDFATYYCQQSYSTPYTFGQGTKLEIK
- binding result: binds

B2: 26 (antibody, V domains shown)
VH: QVQLAQSGAEVKKPGASVKVSCKASGYTFTNHYMHWVRQAPGQGLEWMGWMNPNSGNTGYAQKFQGRVTMTRDTSTSTVYMELSSLRSEDTAVYYCARDRWDGDYYSAWGQGTLVTVSS
VL: DIQMTQSPSSLSASVGDRVTITCRASQSISNWLAWYQQKPGKAPKLLIYDVSHLESGVPSRFSGSGSGTDFTLTISSLQPEDFATYYCQQSYSTPFTFGPGTKVDIK
- binding result: binds

B3: 27 (antibody, V domains shown)
VH: QVQLVQSGAEVKKPGASVKVSCKASGYTFTNYYIHWVRQAPGQGLEWMGWMSPNGGNTGYAQKFQGRVTMTRDTSTSTVYMELSSLRSEDTAVYYCARESWELTGFDYWGQGTLVTVSS
VL: DIQMTQSPSSLSASVGDRVTITCQASQGISNYLAWYQQKPGKAPKLLIYDASSLQSGVPSRFSGSGSGTDFTLTISSLQPEDFATYYCQQSYSTPLTFGGGTKVEIK
- binding result: binds

B4: 28 (antibody, V domains shown)
VH: QVQLVQSGAEVKKPGASVKVSCKASGYTFTSYYMHWVRQAPGQGLEWMGWMNPNSGNTGYAQKFQGRVTMTRDTSTSTVYMELSSLRSEDTAVYYCARERFAGGMDAWGQGTTVTVSS
VL: EIVMTQSPATLSVSPGERATLSCRASQSLSSSSLAWYQQKPGQAPRLLIYGASTRATGIPARFSGSGSGTEFTLTISSLQSEDFAVYYCQQYGSSPFTFGPGTKVDIK
- binding result: binds

B5: 29 (antibody, V domains shown)
VH: QVQLVQSGAEVKKPGASVKVSCKASGYTFSNSYMHWVRQAPGQGLEWMGWMDPSSGYTGSAHKFQGRVTMTRDTSTSTVYMELSSLRSEDTAVYYCAEDSGGAFDIWGQGTMVTVSS
VL: DIQMTQSPSSLSASVGDRVTITCRASEHIANWLAWYQQKPGKAPKLLIYGVSSLESGVPSRFSGSGSGTDFTLTISSLQPEDFATYYCQQSYSTPYTFGQGTKLEIK
- binding result: binds

B6: 30 (antibody, V domains shown)
VH: QVQLVQSGAEVKKPGASVKVSCKASGYPFSTYYMHWVRQAPGQGLEWMGWMNPHSADTGYAEKFQGRVTMTRDTSTSTVYMELSSLRSEDTAVYYCAREVFEGGMDVWGQGTTVTVSS
VL: DIQMTQSPSSLSASVGDRVTITCRASQSVGSWVAWYQQKPGKAPKLLIYPASTLQSGVPSRFSGSGSGTDFTLTISSLQPEDFATYYCQQSYSTPLTFGGGTKVEIK
- binding result: binds

B7: 31 (antibody, V domains shown)
VH: QVQLVQSGAEVKKPGASVKVSCKASGYTFTSYYMHWVRQAPGQGLEWMGWLTPSTGHAGYAQKFQGRVTMTRDTSTSTVYMELSSLRSEDTAVYYCAREGYGGNYGNWGQGTLVTVSS
VL: DIQMTQSPSSLSASVGDRVTITCRASQSISPWLAWYQQKPGKAPKLLIYDASNLETGVPSRFSGSGSGTDFTLTISSLQPEDFATYYCQQTYSTPITFGQGTRLEIK
- binding result: binds

B8: 32 (antibody, V domains shown)
VH: QVQLVQSGAEVKKPGASVKVSCKASGYTFTSYYMHWVRQAPGQGLEWMGWMNPNSGHTGYAQKFQGRVTMTRDTSTSTVYMELSSLRSEDTAVYYCAREDFYGDFDYWGQGTLVTVSS
VL: DIQMTQSPSSLSASVGDRVTITCRASQGISRYLAWYQQKPGKAPKLLIYAASTLQSGVPSRFSGSGSGTDFTLTISSLQPEDFATYYCQQSYSTPLTFGQGTKVEIK
- binding result: binds

B9: 33 (antibody, V domains shown)
VH: QVQLVQSGAEVKKPGASVKVSCKASGYTFTRHFIHWVRQAPGQGLEWMGWIDPNSGVTSSAQKFQGRVTMTRDTSTSTVYMELSSLRSEDTAVYYCARELSRWGFDYWGPGTMVTVSS
VL: EIVMTQSPATLSVSPGERATLSCRASQTVSSNYLAWYQQKPGQAPRLLIYGASTRASGIPARFSGSGSGTEFTLTISSLQSEDFAVYYCQQYYTTPLTFGGGTKVEIK
- binding result: binds

B10: 34 (antibody, V domains shown)
VH: QVQLVQSGAEVKKPGASVKVSCKASGYTFTRHLLHWVRQAPGQGLEWMGWISPQHGVRNYAHKFQGRVTMTRDTSTSTVYMELSSLRSEDTAVYYCARESVEGYFDLWGRGTLVTVSS
VL: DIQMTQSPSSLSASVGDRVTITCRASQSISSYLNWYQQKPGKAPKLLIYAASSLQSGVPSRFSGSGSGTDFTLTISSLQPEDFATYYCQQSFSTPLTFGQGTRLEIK
- binding result: binds

B11: 35 (antibody, V domains shown)
VH: QVQLVQSGAEVKKPGASVKVSCKASGYPFSSYYMHWVRQAPGQGLEWMGMINPSGGSTSYAQKFQGRVTMTRDTSTSTVYMELSSLRSEDTAVYYCARDIFPTMIAGGGFDLWGRGTLVTVSS
VL: DIQMTQSPSSLSASVGDRVTITCRASQSISSWLAWYQQKPGKAPKLLIYDASNLETGVPSRFSGSGSGTDFTLTISSLQPEDFATYYCQQSYSTPPTFGQGTKVEIK
- binding result: binds

B12: 4 (antibody, V domains shown)
VH: QVQLVQSGAEVKKPGASVKVSCKASGYTFTSHHMHWVRQAPGQGLEWMGWVSPSHGLTGYAQKFQGRVTMTRDTSTSTVYMELSSLRSEDTAVYYCARDNWNVHDAFDIWGQGTLVTVSS
VL: DIQMTQSPSSLSASVGDRVTITCRASQGISSYLAWYQQKPGKAPKLLIYGASNLQSGVPSRFSGSGSGTDFTLTISSLQPEDFATYYCQQSYSTPLTFGGGTKVEIK
- binding result: binds

B13: 37 (antibody, V domains shown)
VH: QVQLVQSGAEVKKPGASVKVSCKASGYTFTSYGINWVRQAPGQGLEWMGWMNPNSGNTGYAQKFQGRVTMTRDTSTSTVYMELSSLRSEDTAVYYCARGSFPLVFTIFGVGDVWGQGTMVTVSS
VL: DIQMTQSPSSLSASVGDRVTITCRSSQGIRNDLSWYQQKPGKAPKLLIYLASNSHSGVPSRFSGSGSGTDFTLTISSLQPEDFATYYCLQHNSYPLTFGGGTKVEIK
- binding result: binds

B14: 66 (antibody, V domains shown)
VH: QVQLVQSGAEVKKPGASVKVSCKASGYTFSSYYMHWVRQAPGQGLEWMGWITTNSGITGYAQKFQGRVTMTRDTSTSTVYMELSSLRSEDTAVYYCAREGYSSGLDYWGQGTLVTVSS
VL: not shown
- binding result: binds

B15: 67 (antibody, V domains shown)
VH: QVQLVQSGAEVKKPGASVKVSCKASGYTFSTHYMHWVRQAPGQGLEWMGWINPNSGHAGSAQKFQGRVTMTRDTSTSTVYMELSSLRSEDTAVYYCARESIAVAGYDYWGQGTLVTVSS
VL: DIQMTQSPSSLSASVGDRVTITCRASQSISSWLAWYQQKPGKAPKLLIYAASTLQRGVPSRFSGSGSGTDFTLTISSLQPEDFATYYCQQSYSTPYTFGQGTKLEIK
- binding result: binds

B16: 68 (antibody, V domains shown)
VH: QVQLVQSGAEVKKPGASVKVSCKASGYTFTGYYMHWVRQAPGQGLEWMGWINPNSGTTGYAQNFQGRVTMTRDTSTSTVYMELSSLRSEDTAVYYCAREGFGPNAFDIWGQGTTVTVSS
VL: DIQMTQSPSSLSASVGDRVTITCRASQSISSWLAWYQQKPGKAPKLLIYAASNLQSGVPSRFSGSGSGTDFTLTISSLQPEDFATYYCQQYYSTPYTFGQGTKVEIK
- binding result: binds
